We go through three molecules from patent publication US20250152729A1 (CANCER RESEARCH TECHNOLOGY, published 2025).

Like-named read-outs stand apart in the source and are kept apart here.

In assay [1] the target is T1, human SEMA4A expressed on cells (UniProt ID Q9H3S1, isoform 1) (human, UniProt Q9H3S1 33-761).
T1 construct: Cell-surface SEMA4A: endogenous on MM.1S, NCI-H929 and Karpas-25 cells, or expi293 cells transfected with Origene SC323738; also called human Semaphorin4A; SEMA4A endogenously expressed on MM.1S cells
T1 sequence: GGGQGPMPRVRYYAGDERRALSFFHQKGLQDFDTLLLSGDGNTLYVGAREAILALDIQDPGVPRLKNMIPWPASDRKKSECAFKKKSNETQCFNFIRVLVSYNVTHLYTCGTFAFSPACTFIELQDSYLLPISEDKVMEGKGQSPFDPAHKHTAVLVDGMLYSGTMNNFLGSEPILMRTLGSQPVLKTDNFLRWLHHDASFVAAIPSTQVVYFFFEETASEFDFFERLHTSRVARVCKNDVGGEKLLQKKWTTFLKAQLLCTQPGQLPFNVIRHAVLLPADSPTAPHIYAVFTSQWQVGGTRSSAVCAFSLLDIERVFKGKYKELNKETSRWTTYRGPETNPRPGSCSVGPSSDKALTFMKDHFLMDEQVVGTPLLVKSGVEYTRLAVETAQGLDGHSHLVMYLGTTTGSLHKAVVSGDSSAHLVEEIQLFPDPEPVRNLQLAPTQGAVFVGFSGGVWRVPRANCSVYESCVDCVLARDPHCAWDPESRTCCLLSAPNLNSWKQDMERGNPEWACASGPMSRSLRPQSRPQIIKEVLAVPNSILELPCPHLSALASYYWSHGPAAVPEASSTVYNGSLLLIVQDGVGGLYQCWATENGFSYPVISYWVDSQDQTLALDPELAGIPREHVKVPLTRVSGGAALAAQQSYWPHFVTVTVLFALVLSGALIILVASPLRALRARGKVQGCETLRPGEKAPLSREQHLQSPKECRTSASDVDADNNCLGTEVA
Briefly: Mirrorball direct binding, dilution series on expi293 cells transiently transfected with human SEMA4A, anti-human Alexa Fluor 647. An excerpt:
(§1) Hits from the primary screening were re-formatted into the human Alya IgG1 vector and re-expressed and purified as described in section 4.1. In addition, a single clone was identified that contained an Asparagine deamidation motif (Asn Gly) within its VHCDR2. This potential sequence liability was de-risked by synthesising de novo two clonal variant VH genes (Asn Ala and Gln Gly) and cloning these sequences into the human Alya IgG1 expression vector. To determine the specificity profile of each purified human Alya IgG1, a dilution series was tested for binding to human SEMA4A, mouse SEMA4A, cyno SEMA4A, human SEMA4B and mock transfected cells (transient transfections set up in expi 293 cells.) The five assays employed methods described in section 2.3, using the appropriate cells and substituting the un-purified scFv periplasmic preparation with the recombinant human Alya IgG1 dilution series. Data was analysed as Count x median mean intensity (x FLU).

For assay [2], the target named is T2, human SEMA4B expressed on expi293 cells (human, UniProt Q9NPR2 44-837).
T2 construct: whole, on cells
T2 sequence (looked up): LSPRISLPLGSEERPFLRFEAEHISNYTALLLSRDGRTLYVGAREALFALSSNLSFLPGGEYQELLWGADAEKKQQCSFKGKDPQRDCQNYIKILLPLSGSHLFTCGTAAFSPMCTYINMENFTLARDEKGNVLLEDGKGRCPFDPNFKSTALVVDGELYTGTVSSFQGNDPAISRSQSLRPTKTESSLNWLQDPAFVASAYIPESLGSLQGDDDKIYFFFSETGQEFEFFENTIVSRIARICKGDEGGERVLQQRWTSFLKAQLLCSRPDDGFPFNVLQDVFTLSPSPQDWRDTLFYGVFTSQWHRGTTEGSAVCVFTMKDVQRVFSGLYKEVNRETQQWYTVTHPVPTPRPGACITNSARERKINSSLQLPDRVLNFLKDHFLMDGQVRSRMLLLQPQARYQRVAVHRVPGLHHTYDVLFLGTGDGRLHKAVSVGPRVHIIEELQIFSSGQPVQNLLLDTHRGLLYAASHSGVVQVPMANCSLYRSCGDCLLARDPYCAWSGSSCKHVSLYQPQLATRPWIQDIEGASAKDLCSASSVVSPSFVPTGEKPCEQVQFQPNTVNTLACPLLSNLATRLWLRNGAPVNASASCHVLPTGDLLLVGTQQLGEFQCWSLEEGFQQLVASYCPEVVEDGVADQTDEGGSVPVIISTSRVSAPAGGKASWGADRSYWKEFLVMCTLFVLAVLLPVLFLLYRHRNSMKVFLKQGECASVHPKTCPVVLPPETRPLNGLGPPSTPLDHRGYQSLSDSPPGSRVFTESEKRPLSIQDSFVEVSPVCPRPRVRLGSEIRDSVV
Briefly: Mirrorball direct binding, dilution series on expi293 cells transiently transfected with human SEMA4B, anti-human Alexa Fluor 647.
Excerpt: as §1

Assay [3] concerns the target T3, mouse SEMA4A expressed on expi293 cells (UniProt ID Q62178) (mouse, UniProt Q62178 33-760).
T3 construct: Transient transfection in expi293 cells
T3 sequence: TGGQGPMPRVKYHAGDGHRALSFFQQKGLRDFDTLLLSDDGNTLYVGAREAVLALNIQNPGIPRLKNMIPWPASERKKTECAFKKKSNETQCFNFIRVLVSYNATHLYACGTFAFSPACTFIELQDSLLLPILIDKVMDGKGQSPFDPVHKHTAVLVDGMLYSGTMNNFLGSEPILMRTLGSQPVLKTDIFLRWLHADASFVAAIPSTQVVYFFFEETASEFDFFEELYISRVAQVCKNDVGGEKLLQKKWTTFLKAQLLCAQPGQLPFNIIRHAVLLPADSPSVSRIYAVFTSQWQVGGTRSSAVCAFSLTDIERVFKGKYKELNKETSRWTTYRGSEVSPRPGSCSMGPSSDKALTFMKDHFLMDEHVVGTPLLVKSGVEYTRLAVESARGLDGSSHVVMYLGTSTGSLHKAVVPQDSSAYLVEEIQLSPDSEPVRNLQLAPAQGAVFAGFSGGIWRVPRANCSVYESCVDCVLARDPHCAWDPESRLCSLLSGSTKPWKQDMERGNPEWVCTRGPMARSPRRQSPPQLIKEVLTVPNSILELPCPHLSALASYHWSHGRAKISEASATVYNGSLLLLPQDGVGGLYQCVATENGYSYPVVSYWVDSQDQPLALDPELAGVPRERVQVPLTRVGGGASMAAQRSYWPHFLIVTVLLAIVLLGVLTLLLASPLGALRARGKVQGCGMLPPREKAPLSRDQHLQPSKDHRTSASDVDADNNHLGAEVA
Briefly: Mirrorball direct binding, dilution series on expi293 cells transiently transfected with mouse SEMA4A, anti-human Alexa Fluor 647.
Excerpt: as §1

The target of assay [4] is T1, human SEMA4A expressed on cells …. Briefly: flow cytometry on NCI-H929 cells endogenously expressing human SEMA4A, 10-point titration. The method, then:
Binding of SEMA4A specific IgGs to membrane-bound SEMA4A was evaluated using flow cytometry in NCI-H929 cells that endogenously express human SEMA4A. Binding assays were performed by incubating the anti-SEMA4A antibodies with 200,000 cells for 3 hours at 4° C. followed by two washes with PBS, 1% (w/v) BSA (FACS buffer). A range of antibody concentrations were evaluated using a 10-point, 3-fold dilution series. Cells were then incubated with Alexa Fluor 647 conjugated AffiniPure Fab Fragment Goat Anti-Human IgG (H+L) (Jackson Immunoresearch Europe Limited, Ely, Cambridgeshire) diluted 1:100, at 4° C. for 1 hour, followed by two washes in FACS buffer. Cells were then stained with LIVE/DEAD™ Fixable Violet Dead Cell Stain (Life Technologies, L34955) for 30 minutes at 4° C., followed by two washes in FACS buffer. Cells were then fixed using BD Cell Fix (BD Biosciences, 340181). Fluorescence of live, single cells was measured using a Novocyte™ 3000 flow cytometer and Novoexpress software (Acea Biosciences, Inc, San Diego, CA). Data were analysed using FlowJo software (FlowJo, LLC, Ashland, OR). Mean fluorescence intensity values were plotted against antibody conjugate concentrations and KD values determined using Prism software (GraphPad Software Inc, La Jolla, CA).
A general note: A flow cytometer gives signals particle by particle.

Assay [5] has the same target. In words: cell-based or functional assay.
Assay [6] has the same target. Briefly: cell-based or functional assay. The source holds these as a separate data set.
Assay [7] shares this target. In words: cell-based or functional assay. This is another data set of the same source.
Assay [8] has as its target T2, human SEMA4B expressed on expi293 cells. In words: Mirrorball direct binding, dilution series on expi293 cells transiently transfected with human SEMA4B, anti-human Alexa Fluor 647. The method, then: To determine the specificity profile of each purified human Alya IgG1 conjugated to McMMAF, a dilution series was tested for binding to human SEMA4A, human SEMA4B and mock transfected cells (transient transfections set up in expi 293 cells.) The three assays employed methods described in section 2.3, using the appropriate cells and substituting the un-purified scFv periplasmic preparation with the human Alya IgG1 conjugated to McMMAF. Data was analysed as Count x median mean intensity (x FLU).
The source holds these as a separate data set.

As usually defined, the Kd is the constant that tells how readily two partners part at equilibrium. A low value points to higher affinity.

B1: C0120920 (antibody, V domains shown)
VH: EVQLVQSGPEVKKPGASVKISCKASGYKLNDPGVHGVSWVRQAPGQGLEWMGWISTLNADTRYAQKFQGRVTMATDSSTSTIYMDLRSLKSDDTALYYCARDDYTAIFDFWGRGTLVTVSS
VL: QSVLTQPPSVSVAPGQTASITCGGSNIGSQSVHWYQQKPGQAPVLVVYDDSDRPSGIPERFSGSKSGNTASLILSRVEAGDEADYYCQVWDSSTDHHVFGTGTKVTVL
modifications: 239iCys and S442C (EU numbering) in the constant region
notes: purified, unconjugated; also called C0120920 human Alya IgG1 (unconjugated)
For B1, the figures for the binding result in assay [1], in assay [2] and in assay [3] were “binds”, “no binding (tested: log (M) -8 (1e-8 M))” and “binds”, respectively.

B2: C0120921 (antibody, V domains shown)
VH: EVQLVQSGPEVKKPGASVKISCKASGYKLNDPGVHGVSWVRQAPGQGLEWMGWISTLQGDTRYAQKFQGRVTMATDSSTSTIYMDLRSLKSDDTALYYCARDDYTAIFDFWGRGTLVTVSS
VL: QSVLTQPPSVSVAPGQTASITCGGSNIGSQSVHWYQQKPGQAPVLVVYDDSDRPSGIPERFSGSKSGNTASLILSRVEAGDEADYYCQVWDSSTDHHVFGTGTKVTVL
modifications: 239iCys and S442C (EU numbering) in the constant region
notes: purified, unconjugated; also called C0120921 human Alya IgG1 (unconjugated)
For the molecule B2, the binding result in assay [1] was “binds”; in assay [2], “no binding (tested: log (M) -8 (1e-8 M))”; in assay [3], “binds”.

B3: mouse 5E3 as human Alya IgG1 conjugated to McMMAF (antibody, V domains shown)
VH: QVQLQQPGAELVMPGASVKMSCKASGYTFTDYWMHWVKQRPGQGLEWIGAIDTSDSYTSYNQKFKGKATLTVDESSSTAYMQLSSLTSEDSAVYYCARDYGNFYYYAMDYWGQGTSVTVSS
VL: QAVVTQESALTTSPGETVTLTCRSSTGAVTTSNYANWVQEKPDHLFTGLIGGTNNRAPGVPARFSGSLIGDKAALTITGAQTEDEAIYFCALWYSNHWVFGGGTKLTVL
modifications: McMMAF on the engineered cysteines 239iCys and S442C (EU numbering) of the heavy constant region
notes: Antibody-drug conjugate; human IgG1 Alya constant, drug-to-antibody ratio of four; also called Mouse 5E3-McMMAF
In the case of B3, the Kd in assay [4] is 3.18 nM. For the same molecule, in assay [5], the “Average KARPAS 25 IC50 [pM], cell kill” value was found to be 126 pM; the “Average MM1.S IC50 [pM], cell kill” value was found to be 5.95 pM; the “Average NCI-H929 IC50 [pM], cell kill” value came to 7.53 pM. Moreover, in assay [6], the “Average MM1.S IC50 [pM], cell kill” value was 5.8 pM and the “Average NCI-H929 IC50 [pM], cell kill” value turned out to be 5.1 pM. Also, in assay [7], the “EC50 (nM), Fab-pHast internalisation into NCI-H929” value is 0.25 nM and the “Fold-Change at 6 hours (10 nM), Fab-pHast internalisation” value worked out at 160 fold. For the same molecule, the binding result in assay [8] is reported as “no binding (tested: log (M) -8 (1e-8 M))”.
